The values below are quoted from earlier work in PMC8776070.

Some targets named below: CXCR2 (Homo sapiens) (UniProt P25025); CXCR1 (Homo sapiens) (UniProt P25024); ACKR1 (Homo sapiens) (UniProt Q16570).
Chain of UniProt P25024 (P25024 whole entry): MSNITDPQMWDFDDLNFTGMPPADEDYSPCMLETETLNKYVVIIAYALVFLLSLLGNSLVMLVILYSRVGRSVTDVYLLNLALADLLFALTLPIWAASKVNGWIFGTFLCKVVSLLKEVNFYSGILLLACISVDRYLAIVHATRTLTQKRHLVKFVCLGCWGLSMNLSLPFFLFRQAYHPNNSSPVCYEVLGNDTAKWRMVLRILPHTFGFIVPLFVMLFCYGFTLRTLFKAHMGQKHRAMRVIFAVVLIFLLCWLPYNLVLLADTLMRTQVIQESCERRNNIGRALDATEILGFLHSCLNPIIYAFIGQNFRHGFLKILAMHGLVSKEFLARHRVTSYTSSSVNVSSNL
Chain of UniProt Q16570 (Q16570 whole entry): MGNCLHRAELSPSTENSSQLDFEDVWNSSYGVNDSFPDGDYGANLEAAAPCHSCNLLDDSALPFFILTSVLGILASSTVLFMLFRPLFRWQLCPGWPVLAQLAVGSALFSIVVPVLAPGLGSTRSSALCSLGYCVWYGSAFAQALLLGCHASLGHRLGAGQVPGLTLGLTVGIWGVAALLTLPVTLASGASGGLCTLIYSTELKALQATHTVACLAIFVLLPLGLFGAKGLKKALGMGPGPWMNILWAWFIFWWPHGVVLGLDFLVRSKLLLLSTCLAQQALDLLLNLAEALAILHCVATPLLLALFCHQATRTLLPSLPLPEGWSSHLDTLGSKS
Chain of UniProt P25025 (P25025 whole entry): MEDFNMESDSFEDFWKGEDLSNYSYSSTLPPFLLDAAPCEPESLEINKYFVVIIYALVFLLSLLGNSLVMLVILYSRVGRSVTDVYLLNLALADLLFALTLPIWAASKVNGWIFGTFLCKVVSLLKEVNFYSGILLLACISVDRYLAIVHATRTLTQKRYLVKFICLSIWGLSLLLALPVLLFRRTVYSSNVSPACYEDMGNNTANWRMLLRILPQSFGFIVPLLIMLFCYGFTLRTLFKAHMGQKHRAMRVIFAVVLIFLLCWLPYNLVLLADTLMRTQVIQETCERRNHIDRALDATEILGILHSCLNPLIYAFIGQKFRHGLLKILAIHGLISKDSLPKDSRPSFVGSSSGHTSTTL

What is called Kd is the concentration at which binding is half-saturated. As to CXCL1 (from UniProt P09341), the Kd is 3 nM with CXCR2 (Homo sapiens), 300 nM with CXCR1 (Homo sapiens) and 1.81 nM with ACKR1 (Homo sapiens).
